Measured values: US20090182306A1, “Microneedle Devices and Methods of Drug Delivery or Fluid Withdrawal” (Georgia Tech Research Corporation, priority 2006, published 2009)

Assays:
[1] = In vivo delivery of human growth hormone in hairless rats; conditions: subcutaneous injection of 196 μg
Procedure: Microneedle devices were prepared as described in Example 3. The microneedles and base substrate were both made of CMC and, in some cases, 50% trehalose was included in the formulation too. Human growth hormone (Pfizer) was added to the microneedles at a content of 191-249 μg per 100-needle array. The ratio of growth hormone to matrix material (i.e., CMC or CMC plus trehalose) was 1 to 9. Microneedles were inserted into the skin of hairless rats (Charles River Laboratories). The microneedles inserted easily by hand and were left in place for 24 hours. Minimal skin irritation was seen after microneedle use. A positive control group was included, in which rats received subcutaneous injection of 196 μg of human growth hormone. Blood was drawn periodically and assayed using an ELISA kit specific for human growth hormone without cross-reactivity with rat growth hormone (Diagnostic Systems Laboratories, Webster, Tex.).

[2] = Lysozyme secondary structure by circular dichroism after encapsulation and storage; type: physicochemical
Procedure: The secondary structure of the model drug lysozyme was examined by spectropolarimetry (JASCO, J-810, Tokyo, Japan) after encapsulation and release from dissolving microneedles produced in accordance with Example 3. CMC pyramidal microneedle devices weighing 5 mg that encapsulated lysozyme at a mass fraction of 5 wt % were completely dissolved in […] PBS at room temperature for 10 min and filtered by centrifugal filtration (Centricon YM-50, Millipore, Bedford, Mass., USA) at 1000×g and room temperature for 10 min to isolate lysozyme (14.3 kDa) from the dissolved CMC matrix material (90 kDa average molecular mass). After determining lysozyme concentration, PBS was added to dilute the lysozyme to 20 μg/ml. CD spectra were taken for (1) untreated lysozyme, (2) lysozyme encapsulated in microneedles that were dissolved 1 h after fabrication, (3) lysozyme encapsulated in microneedles that were dissolved after 60 days of storage at ambient conditions (23±2° C. and 38±5% relative humidity), and (4) lysozyme thermally treated at 80° C. for 30 min to cause irreversible denaturation.

[3] = Lysozyme enzymatic activity (EnzCheck lysozyme assay kit) after encapsulation and storage; type: biochemical
Procedure: Enzymatic activity of lysozyme encapsulated within CMC microneedle devices was tested with EnzCheck lysozyme assay kit (Molecular Probes). Microneedle devices weighing 5 mg that contained lysozyme encapsulated at a concentration of 5 wt % were completely dissolved in PBS at room temperature for 10 min. PBS was added to dilute each sample to 0.05 μg/ml lysozyme and 0.95 μg/ml CMC. Lysozyme activity was assayed using 1 ml solution samples for: (1) untreated lysozyme, (2) untreated lysozyme (0.05 μg) and CMC hydrogel (0.95 μg) mixed, and dissolved together, (3) lysozyme encapsulated in microneedles that were dissolved 1 h after fabrication, and (4) lysozyme encapsulated in microneedles that were dissolved after 60 days of storage at ambient conditions.

growth hormone: Human growth hormone (Pfizer)
time of serum concentration peak [1]: within about one hour

lysozyme: model drug (14.3 kDa) encapsulated at 5 wt % in CMC microneedle devices
protein structure (CD) ([2]; after storage of microneedle patches for 2 months at room temperature): unchanged
change in protein secondary structure (CD) ([2]; encapsulated in microneedle patch, then released by dissolution, versus untreated lysozyme): no detectable change
secondary structure (CD), positive control ([2]; thermally treated at 80° C. for 30 min): extensive degradation of secondary structure
loss of enzymatic activity compared to untreated enzyme ([3]; encapsulated in microneedles, dissolved in PBS): no loss of enzymatic activity
retained enzymatic activity ([3]; released from microneedles after two months of storage): 96%
change in lysozyme activity ([3]; untreated lysozyme mixed with dissolved CMC microneedle containing no lysozyme): no change in lysozyme activity
